Measurements published in IntAct's records for PubMed 31515488.

B1: Zinc finger protein Aiolos (Homo sapiens), Q9UKT9 (parent)
chain: MEDIQTNAELKSTQEQSVPAESAAVLNDYSLTKSHEMENVDSGEGPANEDEDIGDDSMKVKDEYSERDENVLKSEPMGNAEEPEIPYSYSREYNEYENIKLERHVVSFDSSRPTSGKMNCDVCGLSCISFNVLMVHKRSHTGERPFQCNQCGASFTQKGNLLRHIKLHTGEKPFKCHLCNYACQRRDALTGHLRTHSVEKPYKCEFCGRSYKQRSSLEEHKERCRTFLQSTDPGDTASAEARHIKAEMGSERALVLDRLASNVAKRKSSMPQKFIGEKRHCFDVNYNSSYMYEKESELIQTRMMDQAINNAISYLGAEALRPLVQTPPAPTSEMVPVISSMYPIALTRAEMSNGAPQELEKKSIHLPEKSVPSERGLSPNNSGHDSTDTDSNHEERQNHIYQQNHMVLSRARNGMPLLKEVPRSYELLKPPPICPRDSVKVINKEGEVMDVYRCDHCRVLFLDYVMFTIHMGCHGFRDPFECNMCGYRSHDRYEFSSHIARGEHRALLK
partner: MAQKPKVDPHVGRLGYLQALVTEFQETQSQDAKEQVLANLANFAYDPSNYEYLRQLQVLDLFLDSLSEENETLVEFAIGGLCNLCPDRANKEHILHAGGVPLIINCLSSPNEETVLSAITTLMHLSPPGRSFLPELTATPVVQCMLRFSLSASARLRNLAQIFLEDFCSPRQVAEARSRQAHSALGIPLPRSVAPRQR
B2: Protein Tob1 (Homo sapiens), P50616 (parent)
chain: MQLEIQVALNFIISYLYNKLPRRRVNIFGEELERLLKKKYEGHWYPEKPYKGSGFRCIHIGEKVDPVIEQASKESGLDIDDVRGNLPQDLSVWIDPFEVSYQIGEKGPVKVLYVDDNNENGCELDKEIKNSFNPEAQVFMPISDPASSVSSSPSPPFGHSAAVSPTFMPRSTQPLTFTTATFAATKFGSTKMKNSGRSNKVARTSPINLGLNVNDLLKQKAISSSMHSLYGLGLGSQQQPQQQQQPAQPPPPPPPPQQQQQQKTSALSPNAKEFIFPNMQGQGSSTNGMFPGDSPLNLSPLQYSNAFDVFAAYGGLNEKSFVDGLNFSLNNMQYSNQQFQPVMAN
B3: Fructose-1,6-bisphosphatase 1 (Homo sapiens), P09467 (parent)
chain: MADQAPFDTDVNTLTRFVMEEGRKARGTGELTQLLNSLCTAVKAISSAVRKAGIAHLYGIAGSTNVTGDQVKKLDVLSNDLVMNMLKSSFATCVLVSEEDKHAIIVEPEKRGKYVVCFDPLDGSSNIDCLVSVGTIFGIYRKKSTDEPSEKDALQPGRNLVAAGYALYGSATMLVLAMDCGVNCFMLDPAIGEFILVDKDVKIKKKGKIYSLNEGYARDFDPAVTEYIQRKKFPPDNSAPYGARYVGSMVADVHRTLVYGGIFLYPANKKSPNGKLRLLYECNPMAYVMEKAGGMATTGKEAVLDVIPTDIHQRAPVILGSPDDVLEFLKVYEKHSAQ
B4: Kelch-like protein 2 (Homo sapiens), O95198 (parent)
chain: METPPLPPACTKQGHQKPLDSKDDNTEKHCPVTVNPWHMKKAFKVMNELRSQNLLCDVTIVAEDMEISAHRVVLAACSPYFHAMFTGEMSESRAKRVRIKEVDGWTLRMLIDYVYTAEIQVTEENVQVLLPAAGLLQLQDVKKTCCEFLESQLHPVNCLGIRAFADMHACTDLLNKANTYAEQHFADVVLSEEFLNLGIEQVCSLISSDKLTISSEEKVFEAVIAWVNHDKDVRQEFMARLMEHVRLPLLPREYLVQRVEEEALVKNSSACKDYLIEAMKYHLLPTEQRILMKSVRTRLRTPMNLPKLMVVVGGQAPKAIRSVECYDFKEERWHQVAELPSRRCRAGMVYMAGLVFAVGGFNGSLRVRTVDSYDPVKDQWTSVANMRDRRSTLGAAVLNGLLYAVGGFDGSTGLSSVEAYNIKSNEWFHVAPMNTRRSSVGVGVVGGLLYAVGGYDGASRQCLSTVECYNATTNEWTYIAEMSTRRSGAGVGVLNNLLYAVGGHDGPLVRKSVEVYDPTTNAWRQVADMNMCRRNAGVCAVNGLLYVVGGDDGSCNLASVEYYNPTTDKWTVVSSCMSTGRSYAGVTVIDKPL
partner: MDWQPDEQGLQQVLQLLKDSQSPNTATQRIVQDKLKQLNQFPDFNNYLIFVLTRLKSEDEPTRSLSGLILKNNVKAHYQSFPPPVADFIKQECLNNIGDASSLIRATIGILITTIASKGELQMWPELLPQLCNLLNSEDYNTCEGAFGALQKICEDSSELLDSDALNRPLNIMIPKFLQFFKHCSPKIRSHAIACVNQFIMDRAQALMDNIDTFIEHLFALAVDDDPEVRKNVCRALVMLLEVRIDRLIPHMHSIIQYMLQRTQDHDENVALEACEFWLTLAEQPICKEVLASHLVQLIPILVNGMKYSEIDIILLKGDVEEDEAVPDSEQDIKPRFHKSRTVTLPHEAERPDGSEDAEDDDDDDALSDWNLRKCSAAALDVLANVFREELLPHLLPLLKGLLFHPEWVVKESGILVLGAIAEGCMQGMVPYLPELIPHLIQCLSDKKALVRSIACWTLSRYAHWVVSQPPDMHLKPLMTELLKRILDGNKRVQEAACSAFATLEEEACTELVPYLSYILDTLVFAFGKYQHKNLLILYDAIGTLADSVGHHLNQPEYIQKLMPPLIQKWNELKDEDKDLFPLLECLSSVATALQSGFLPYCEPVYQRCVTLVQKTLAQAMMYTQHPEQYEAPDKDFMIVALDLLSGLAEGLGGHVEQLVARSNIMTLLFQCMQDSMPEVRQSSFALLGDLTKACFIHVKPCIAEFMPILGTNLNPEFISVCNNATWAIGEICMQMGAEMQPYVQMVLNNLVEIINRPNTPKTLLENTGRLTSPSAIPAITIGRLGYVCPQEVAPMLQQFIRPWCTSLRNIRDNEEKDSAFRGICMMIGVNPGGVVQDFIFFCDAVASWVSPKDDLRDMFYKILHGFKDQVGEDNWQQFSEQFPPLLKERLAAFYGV
B5: Germ cell-less protein-like 1 (Homo sapiens), Q96IK5 (parent)
chain: MGSLSSRVLRQPRPALAQQAQGARAGGSARRPDTGDDAAGHGFCYCAGSHKRKRSSGSFCYCHPDSETDEDEEEGDEQQRLLNTPRRKKLKSTSKYIYQTLFLNGENSDIKICALGEEWSLHKIYLCQSGYFSSMFSGSWKESSMNIIELEIPDQNIDVEALQVAFGSLYRDDVLIKPSRVVAILAAACLLQLDGLIQQCGETMKETVNVKTVCGYYTSAGTYGLDSVKKKCLEWLLNNLMTHQNVELFKELSINVMKQLIGSSNLFVMQVEMDIYTALKKWMFLQLVPSWNGSLKQLLTETDVWFSKQRKDFEGMAFLETEQGKPFVSVFRHLRLQYIISDLASARIIEQDAVVPSEWLSSVYKQQWFAMLRAEQDSEVGPQEINKEELEGNSMRCGRKLAKDGEYCWRWTGFNFGFDLLVTYTNRYIIFKRNTLNQPCSGSVSLQPRRSIAFRLRLASFDSSGKLICSRTTGYQILTLEKDQEQVVMNLDSRLLIFPLYICCNFLYISPEKKN
partner: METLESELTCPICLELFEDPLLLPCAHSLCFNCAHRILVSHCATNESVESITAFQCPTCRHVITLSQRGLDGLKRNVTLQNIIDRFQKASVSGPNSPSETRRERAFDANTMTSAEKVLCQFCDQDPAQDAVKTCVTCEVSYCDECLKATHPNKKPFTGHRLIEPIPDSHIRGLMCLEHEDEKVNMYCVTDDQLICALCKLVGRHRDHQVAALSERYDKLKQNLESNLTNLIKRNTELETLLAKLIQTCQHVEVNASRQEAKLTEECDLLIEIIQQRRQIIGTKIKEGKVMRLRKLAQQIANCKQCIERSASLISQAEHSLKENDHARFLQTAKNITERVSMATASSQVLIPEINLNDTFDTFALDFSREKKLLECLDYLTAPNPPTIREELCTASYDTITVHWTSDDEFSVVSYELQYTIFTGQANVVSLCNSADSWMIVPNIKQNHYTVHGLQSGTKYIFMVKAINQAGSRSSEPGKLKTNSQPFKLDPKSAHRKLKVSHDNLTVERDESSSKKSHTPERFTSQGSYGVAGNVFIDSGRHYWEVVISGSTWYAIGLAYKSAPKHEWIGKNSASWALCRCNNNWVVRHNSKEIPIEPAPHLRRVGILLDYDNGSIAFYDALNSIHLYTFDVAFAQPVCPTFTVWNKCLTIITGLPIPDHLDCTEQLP

Variants of: B1
Conditions: with armc7_human ARMC7, Q9H6L4

| effect of a mutation on the interaction | Variant |
| --- | --- |
| with no effect | N119D |

Variants of: B2
Conditions: with cnot7_human CNOT7, Q9UIV1
Sequence of cnot7_human CNOT7, Q9UIV1 (Q9UIV1 whole entry): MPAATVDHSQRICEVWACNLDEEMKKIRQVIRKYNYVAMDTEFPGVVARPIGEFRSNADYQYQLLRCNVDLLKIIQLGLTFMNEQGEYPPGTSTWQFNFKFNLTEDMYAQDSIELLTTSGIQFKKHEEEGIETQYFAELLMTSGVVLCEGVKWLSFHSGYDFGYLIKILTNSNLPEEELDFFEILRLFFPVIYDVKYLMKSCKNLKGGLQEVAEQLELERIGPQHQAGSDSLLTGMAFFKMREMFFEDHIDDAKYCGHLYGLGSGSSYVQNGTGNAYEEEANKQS

| effect of a mutation on the interaction | Variant |
| --- | --- |
| with no effect | Y50N |

Variants of: B3
Conditions: with fxr2_human FXR2, P51116

| effect of a mutation on the interaction | Variant |
| --- | --- |
| disrupting interaction strength | G260R |

Variants of: B4
Conditions: with tnpo2_human TNPO2, O14787

| effect of a mutation on the interaction | Variant |
| --- | --- |
| with no effect | A480T |
| with no effect | S68A |

Variants of: B5
Conditions: with tri18_human MID1, O15344

| effect of a mutation on the interaction | Variant |
| --- | --- |
| with no effect | R457H |
